Residue numbers refer to the chain shown, from its start.
T1: his6-SonM-R67K, individually expressed (Shewanella oneidensis MR-1, UniProt Q8EGW3 1-263, SonM-R67K)
T1 sequence (looked up): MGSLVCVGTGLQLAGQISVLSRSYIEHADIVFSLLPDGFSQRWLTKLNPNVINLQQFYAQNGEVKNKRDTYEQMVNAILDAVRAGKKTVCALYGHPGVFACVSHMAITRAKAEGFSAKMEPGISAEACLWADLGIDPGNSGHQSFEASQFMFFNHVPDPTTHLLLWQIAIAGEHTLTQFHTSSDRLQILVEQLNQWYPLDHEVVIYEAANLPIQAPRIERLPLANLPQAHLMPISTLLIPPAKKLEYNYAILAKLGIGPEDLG

T2: his6-SonM-Y93F, individually expressed (Shewanella oneidensis MR-1, UniProt Q8EGW3 1-263, SonM-Y93F)
T2 sequence (looked up): T1 sequence (looked up) with K67R, Y93F

T3: his6-SonM-Y71F, individually expressed (Shewanella oneidensis MR-1, UniProt Q8EGW3 1-263, SonM-Y71F)
T3 sequence (looked up): T1 sequence (looked up) with K67R, Y71F

T4: his6-SonM-Y58F, individually expressed (Shewanella oneidensis MR-1, UniProt Q8EGW3 1-263, SonM-Y58F)
T4 sequence (looked up): T1 sequence (looked up) with Y58F, K67R

B1: unmethylated SonA precursor peptide (SonA-0Me), his6-tagged (natural protein, Shewanella oneidensis MR-1, UniProt Q8EGW2 1-71, looked up)
chain: MSGLSDFFTQLGQDAQLMEDYKQNPEAVMRAHGLTDEQINAVMTGDMEKLKTLSGDSSYQSYLVISHGNGD
B2: his6-SonM, wild type, individually expressed (enzyme, Shewanella oneidensis MR-1, UniProt Q8EGW3 1-263, looked up)
chain: T1 sequence (looked up) with K67R
notes: SonM (SO1478), α-N-methyltransferase of Shewanella oneidensis MR-1, 263 AA; gene sonM amplified from genomic DNA; also called wt; source: E. coli BL21(DE3), pET28b, purified (Ni-NTA or HisTrap, Superdex 200 SEC); not shown: His6, N-terminal, kept
B3: SonA borosin binding domain only construct (SonA-BBD; 1-55) (domain or fragment, Shewanella oneidensis MR-1, UniProt Q8EGW2 1-55, looked up)
chain: MSGLSDFFTQLGQDAQLMEDYKQNPEAVMRAHGLTDEQINAVMTGDMEKLKTLSG
notes: SonA (SO1479) of Shewanella oneidensis MR-1, helical bundle composed of the first 55 amino acids (1-55); The his6 tag is stated for the individual construct; for the co-expression construct it is surmised from the template plasmid pMF1181; also called BBD-SonA; his6-SonA-BBD
B4: doubly α-N-methylated SonA precursor peptide (SonA-2Me), his6-tagged (natural protein, Shewanella oneidensis MR-1, UniProt Q8EGW2 1-71, looked up)
chain: B1 chain
modifications: N-methyl-L-leucine (MLE) at 63; N-methyl-L-isoleucine (IML) at 65 (backbone α-N-methylations)
notes: SonA (SO1479), borosin precursor peptide of Shewanella oneidensis MR-1; BBD leader 1-53, linker 54-61, core peptide 62-71; also called doubly methylated SonA; SO1479; source: E. coli BL21(DE3), co-expressed from pET28b with SonM, purified (Ni-NTA or HisTrap, Superdex 200 SEC)

Experiments:
[1] = biological target: T1, his6-SonM-R67K, individually expressed; test: cell-based or functional assay
[2] = biological target: T2, his6-SonM-Y93F, individually expressed; test: cell-based or functional assay
[3] = biological target: B2; test: cell-based or functional assay
[4] = biological target: T3, his6-SonM-Y71F, individually expressed; test: cell-based or functional assay
[5] = biological target: T4, his6-SonM-Y58F, individually expressed; test: cell-based or functional assay
[6] = biological target: the molecule itself; test: SEC; oligomeric state of individually expressed and purified SonM and SonA (Supplementary Fig. 6); Superdex 200 in 50 mM HEPES pH 8, 300 mM NaCl, 10% glycerol is the sizing step of the purification
[7] = biological target: B2; test: enzyme inhibition kinetics (continuous coupled methyltransferase assay, A340); apparent Ki; 5 μM wt SonM, saturating SAM (1 mM), varying concentrations of SonA and of the inhibitor (SonA-BBD or SonA-2Me); non-linear regression in GraphPad Prism 8; settings: both partners purified

B1
apparent KM for SonA, coupled methyltransferase kinetics assay, saturating SAM [1]: 18 µM | apparent KM for SonA, coupled methyltransferase kinetics assay, saturating SAM [2]: 6.2 µM | apparent KM for SonA, coupled methyltransferase kinetics assay, saturating SAM [3]: 8.2 µM | apparent KM for SonA, coupled methyltransferase kinetics assay, saturating SAM [4]: 9.6 µM | apparent KM for SonA, coupled methyltransferase kinetics assay, saturating SAM [5]: 7.6 µM

B2
stoichiometry N [6]: 2

B3
Ki [7]: 3.9 µM

B4
Ki [7]: 160 µM

From publication PMC8429565, “Conformational rearrangements enable iterative backbone N-methylation in RiPP biosynthesis” (Nature Communications, 2021)
